In patent US6866997, “Nucleic acid binding proteins” (Gendaq Limited):

Biological target: Zif268 DNA-binding domain (UniProt P08046 P08046:333-421)
Experiment: apparent; text states optimised peptide Kd equals that of wild-type Zif268; curve only in FIG. 7

B1: Zif268 consensus site (dsDNA)
DNA 1: GCGTGGGCG
DNA 2: CGCCCACGC
Kd: 3 nM
